Target: T1, TIGIT (T-cell immunoreceptor with Ig and ITIM domains), peripheral TIGIT receptors on patients' CD4+ T cells, … (human (patients), UniProt Q495A1 22-244)
T1 construct: whole, on cells; Endogenous receptor on patients' peripheral immune cells; Occupancy was measured ex vivo after dosing with tiragolumab
T1 sequence (looked up): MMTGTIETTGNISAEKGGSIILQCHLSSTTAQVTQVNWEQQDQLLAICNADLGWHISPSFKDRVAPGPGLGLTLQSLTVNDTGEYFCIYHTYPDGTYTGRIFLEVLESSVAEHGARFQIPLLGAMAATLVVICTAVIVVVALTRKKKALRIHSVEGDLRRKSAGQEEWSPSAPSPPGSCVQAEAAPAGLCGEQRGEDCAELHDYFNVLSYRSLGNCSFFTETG
Assay: receptor occupancy on peripheral CD8+ T cells and NK cells of patients dosed at 2-1200 mg Q3W (Phase Ia, Study GO30103)

binding result: binds
B1: tiragolumab (antibody, human IgG1, kappa, V domains shown)
VH: EVQLQQSGPGLVKPSQTLSLTCAISGDSVSSNSAAWNWIRQSPSRGLEWLGKTYYRFKWYSDYAVSVKGRITINPDTSKNQFSLQLNSVTPEDTAVFYCTRESTTYDLLAGPFDYWGQGTLVTVSS
VL: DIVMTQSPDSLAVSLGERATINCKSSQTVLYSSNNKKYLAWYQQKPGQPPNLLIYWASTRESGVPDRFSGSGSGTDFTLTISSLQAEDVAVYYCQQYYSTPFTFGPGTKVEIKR
notes: also called MTIG7192A; RG6058

— US20220016243A1 (published 2022)
